Results reported in the supplement of paper PMC9170038.

Tested on: MS2 coat protein
Test: apparent KD of MS2 coat protein; designed switch direction (-1 OFF switch, 1 ON switch): -1; higher = weaker reporter binding
Summary of the method: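 Designed RNA switches with common flanks were transcribed on Illumina chips by stalled E. coli RNA polymerase and titrated with SNAP-549-labelled MS2 coat protein, from 0.7 or 1.5 nM doubling to 3 µM, in Tris-HCl pH 7.5 buffer with KCl, MgCl2, BSA, DTT, tRNA and Tween-20. Steps lasted 0.8–1.5 h (lowest) to 10–20 min (highest). Titrations ran without input, with 200 uM small-molecule ligand, or with an oligonucleotide input. Normalised cluster fluorescence was curve-fitted, and apparent KD is the per-design median over clusters.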

[1] = input ligand: microRNA oligo, concentration not stated
[2] = Eterna round: R95, input ligand: FMN 200 uM
[3] = Eterna round: R95, input ligand: microRNA oligo, concentration not stated
[4] = Eterna round: R95, input ligand: none

Sequence	apparent KD of MS2 coat protein (input ligand: FMN 200 uM) [nM]	apparent KD of MS2 coat protein (input ligand: none) [nM]	apparent KD of MS2 coat protein [1] [nM]	apparent KD of MS2 coat protein [2] [nM]	apparent KD of MS2 coat protein [3] [nM]	apparent KD of MS2 coat protein [4] [nM]
CAGUACUGAGGAUAUACAUGAGGAUCACCCAUGUGUCCUAUAUUAGGAAACUAGGUAUGUAGAAGGCAGUACUG [Omei Ex3 Mod of Eli 4.27 v5] (Eterna round: R97, puzzle: Exclusion 3)	485	340				
CCCGCGCGUGUAGGAUAUGGCUCGGUGUCUGGGCCAGAAGGACAUGAGGAUCACCCAUGUCUGCGGGUGUGGGCGUGGUUUGGG [-36, -33 kcal A 14%] (Eterna round: R96, puzzle: Exclusion NG 1)	91.8	27.2	18.6			
UUAAAAUAUGUAGGAUAUGCGUGGCGAAGCUAUGCAGAAGGACAUGAGGAUCACCCAUGUUCCUGCGUCCGCGUACGGAUGCAA [JL Eng1 1.21 mod 3] (Eterna round: R96, puzzle: Exclusion NG 1)	14.8	12.4	9.15			
AAAAAGCGAGGAUAUGCAUAAGGACCCGGGAGGGAAGUCGAACAUGAGGAUCACCCAUGUAGAAGGCGCAAAAA [Exclss2-IV] (puzzle: Exclusion 2)				16	11.5	15.4
CUAAAUCAUGUAGGAUAUGCGUGGCGAAGCUAUGCAGAAGGACAUGAGGAUCACCCAUGUGCUUCCGUCUGCGUACAGACGGAA [JL ENG1 1.17] (Eterna round: R96, puzzle: Exclusion NG 1)	328	255	222			
UCGGCGCGAGGAUAUACGGUUGCUUGGUAGGGUCGUGGCGUACAUGAGGAUCACCCAUGUAGAAGGCGCGCCGC [Apr-15 SS2-31] (puzzle: Exclusion 2)					15.9	
CUUAUGUGAGGAUAUGCCUGGCCGUGAGGCCAAAUUGAAUUGCAGAAGGCACAUGAGGAUCACCCAUGUGCGGG [jl-ex4-4.66 ViennaUCT mod] (Eterna round: R97, puzzle: Exclusion 4)	201	50.2				
AACCUGAGGCUUUGCUUUAGGUGUACAUGAGGAUCACCCAUGUAGGAUAUGGUAGGCUUUGCUUACCAGAAGGACAUUUAGGUU [JL ENG3 1.15] (Eterna round: R96, puzzle: Exclusion NG 3)	110	43	33.6			
CACCGUUACAGAGGAUAUGGUACAUGAGGAUCACCCAUGUAAUAAAUGAGAAUUUCGGAUGUAUUCCAGAAGGCUGAAAUCGGC [Ostricism 64 - Jieux - Exclusion NG 2] (Eterna round: R96, puzzle: Exclusion NG 2)	50.2	46.8	30.2			
CUGCUCCGUGUAGGAUAUGCAUACUCCCAUUAUGCAGAAGGACAUGAGGAUCACCCAUGUAUGUUAUUAUCAUGUGUUGCGUAC [Design 13] (Eterna round: R96, puzzle: Exclusion NG 1)	250	38.5	29.5			
GUAACAACUAGAGGAUAUCAGCACGUUUAGUGCUGAGAAGGCUAGAGUUACAUGAGGAUCACCCAUGUCUAGAGAUCAUUAAUU [ENG1/13-A2] (Eterna round: R96, puzzle: Exclusion NG 1)	177	83.8	66.3			
GUAGAUCGAGUUAGGAUAUGAUUAAAAUUCGGAUAUCAGAAGGAACUUGAGGAUCACCCAAGUAUAGAUGAUUC [JR_BMEx4_Sub057] (Eterna round: R97, puzzle: Brourd's mod of Exclusion 4)	135	29.8				
ACCGUGCAAGGAUAUCGUUACCUCGACAUGAGGAUCACCCAUGUGGCCAUAUAGCGAUUGCGAGAAGGUGCGGGUA [Aatveti] (puzzle: Exclusion 5)					85.2	
CUAGUCCGAGGAUAUAUUAUGUGAAACAUGAGGAUCACCCAUGUUAUAUGAUGGAUGAAAAUAGAAGGCGGACUAG [Mat - Exclusion 5 - JL mod - D61] (puzzle: Exclusion 5)				20.4	72.8	88.1
CCAGCGAGUGUGAGGAUAUGCUGGUCCUUGGAUCAGCAGAAGGCACAUGAGGAUCACCCAUGUGAAAACGUUGG [JL bmx4 3.30] (puzzle: Brourd's mod of Exclusion 4)					21.8	
GUCAGCUCGUGAGGAUAUACAUGAGGAUCACCCAUGUGGUCAAUAGCAGCUUCGGCUGCAUACAUGUAGAAGGCACGAGCUGAC [ENG2/7-A1] (Eterna round: R96, puzzle: Exclusion NG 2)	59.7	30.7	9.59			
UAAGAUUACCGAGGAUAUGCUGGUUUCUCUCAAGCAGAAGGCGGACUCAACAUGAGGAUCACCCAUGUAAGACGGGUACUAGAU [Ex NG1 #11] (Eterna round: R96, puzzle: Exclusion NG 1)	133	574	76.6			
CUGUUCCAUGUAGGAUAUGCAUAUUCUCAUUAUGCAGAAGGACAUGAGGAUCACCCAUGUAUGUUAUUAUUAUAUGUUACAUGU [Design 3] (Eterna round: R96, puzzle: Exclusion NG 1)	633	64.9	47.7			
UGAUCUAGCGGAGGAUAUACAUGAGGAUCACCCAUGUAGACUCUAUGACCGUAGUCGUGGAGUGUGUAGAAGGCCGCUAGAUCU [JL ENG2 3.74] (Eterna round: R96, puzzle: Exclusion NG 2)	14.3	12.6	9.24			
UGCAUGUAAGGAUAUGCAACCUGCGCUCAUUAGCAGGUCAAGCAGAAGGUACAUGAGGAUCACCCAUGUGUCCG [Tebisoma] (Eterna round: R96, puzzle: Exclusion 4)	462	31.6	25.2			
UUUAACAAGCCAGAUCCUCACAUGAGGAUCACCCAUGUGCUCGUCUGAUUUUGUACUAUCAUGUGAGUGAUAGUGUU [Level Boss var2-06] (puzzle: Sensor v3, turn-off variant 1)				67.3	24.7	115
CAGGAUAGAGGAUAUACAUAGAUACAGAUUCAUGUGAUCCUACAUGAGGAUCACCCAUGUAGAAGGCUAUCCUG [Fiskers Ex 2 - 21] (Eterna round: R96, puzzle: Exclusion 2)	216	348	321			
AGAGUGUGAGGAUAUACAUGAGGAUCACCCAUGUAAUAACAGGUUACGGGCGGCACCAGUAGAAGGCACUUGUC [Eternabot (L2) Solution 22] (Eterna round: R97, puzzle: Exclusion 3)	42	28.2				
CAUAUUCGAGGAUAUGCCUGAUGUCCUUAUGGAGCCCAUUCACAUGAGGAUCACCCAUGUAGAAGGCGGAUGCG [Eternabot (L1) Solution 37] (Eterna round: R97, puzzle: Exclusion 2)	31.2	24.8				
GAAAACGCAGAGGAUAUUUCAGAUCAAAGCUGCAAAGAAGGCUGCACAUGAGGAUCACCCAUGUGGUCUUCAAU [Mat - Exclusion 6 - JL Mod - D8] (Eterna round: R97, puzzle: Exclusion 6)	315	25.8				
ACGAUGACUGAAAGAAGUCAAAAGACAUGAGGAUCACCCAUGUAGGAUAUGGCUACGAAAAGUAGUCAGAAGGACAAGUCAUCA [Omei Exc(NG) 3 Av4] (Eterna round: R96, puzzle: Exclusion NG 3)	10.1	14.1	9.69			
GAUGAGGUAGGAUAUACGAGAAGAUAGGGUAGAUAUAUAACACAUGAGGAUCACCCAUGUAGAAGGACCAGUAG [Mat - Exclusion 2 - Mod of my Tesla design - D71] (puzzle: Exclusion 2)				65.1	36.4	31.7
CUUAUGUAAGGAUAUGCCUGGCCGUGAGGCCAAAUUGAAUAGCAGAAGGUACAUGAGGAUCACCCAUGUACGGG [jl-ex4-4.63 ViennaUCT mod] (Eterna round: R97, puzzle: Exclusion 4)	325	364				
AAACCCUGAGGAUAUACAUAACAACAAACCCUCACGUGCCAACAUGAGGAUCACCCAUGUAGAAGGCAGGCCAA [Mod R3 Insanara 6 - Jieux - Exclusion 2] (Eterna round: R97, puzzle: Exclusion 2)	64.3	18.7				
